The results in this text go back to publication PMC7096706.

The target of this assay is Trypanosoma cruzi farnesyl pyrophosphate synthase (Trypanosoma cruzi). The experiment in a line: dynamic light scattering; stock solution of tcFPPS thawed from -80°C directly before analysis; Zetasizer Ultra; distribution by volume analysis; monomer to dimer.

Usually stoichiometry N stands for the number of molecules, sites or subunits per partner or assembly.

As for “Trypanosoma cruzi farnesyl pyrophosphate synthase (enzyme)”, the stoichiometry N was determined as 2.
